Patent US20130266576A1

Molecular target: von Willebrand factor (vWF) (UniProt P04275)
Assay: solid-phase binding assay, vWF coated on wells, FVIII 0.05-6.4 nM, no antibody, detection with biotinylated 1F5; one-site model

B-domain deleted factor VIII (FVIII), sequence (P00451 20-759, stated change not applied): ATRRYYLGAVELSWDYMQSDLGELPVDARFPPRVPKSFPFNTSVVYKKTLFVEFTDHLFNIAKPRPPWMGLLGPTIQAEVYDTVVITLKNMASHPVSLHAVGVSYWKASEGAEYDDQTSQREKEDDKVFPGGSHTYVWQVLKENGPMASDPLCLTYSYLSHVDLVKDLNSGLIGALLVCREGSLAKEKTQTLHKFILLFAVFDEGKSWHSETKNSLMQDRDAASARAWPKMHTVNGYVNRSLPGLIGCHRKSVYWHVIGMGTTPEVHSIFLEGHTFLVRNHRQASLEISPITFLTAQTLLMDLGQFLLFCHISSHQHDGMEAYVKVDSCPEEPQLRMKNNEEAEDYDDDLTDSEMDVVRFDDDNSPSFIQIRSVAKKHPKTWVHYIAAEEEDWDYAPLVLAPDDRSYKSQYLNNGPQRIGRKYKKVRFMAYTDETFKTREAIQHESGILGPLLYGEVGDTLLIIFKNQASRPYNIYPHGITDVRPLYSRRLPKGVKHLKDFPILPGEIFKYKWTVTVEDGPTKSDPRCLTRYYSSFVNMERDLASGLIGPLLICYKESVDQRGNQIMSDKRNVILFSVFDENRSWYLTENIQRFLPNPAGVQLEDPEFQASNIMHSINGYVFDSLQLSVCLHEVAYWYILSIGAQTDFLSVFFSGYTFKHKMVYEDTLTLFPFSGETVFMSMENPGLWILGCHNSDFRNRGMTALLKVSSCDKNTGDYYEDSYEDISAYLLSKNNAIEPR
B-domain deleted factor VIII (FVIII), sequence (P00451 1668-2351, stated change not applied): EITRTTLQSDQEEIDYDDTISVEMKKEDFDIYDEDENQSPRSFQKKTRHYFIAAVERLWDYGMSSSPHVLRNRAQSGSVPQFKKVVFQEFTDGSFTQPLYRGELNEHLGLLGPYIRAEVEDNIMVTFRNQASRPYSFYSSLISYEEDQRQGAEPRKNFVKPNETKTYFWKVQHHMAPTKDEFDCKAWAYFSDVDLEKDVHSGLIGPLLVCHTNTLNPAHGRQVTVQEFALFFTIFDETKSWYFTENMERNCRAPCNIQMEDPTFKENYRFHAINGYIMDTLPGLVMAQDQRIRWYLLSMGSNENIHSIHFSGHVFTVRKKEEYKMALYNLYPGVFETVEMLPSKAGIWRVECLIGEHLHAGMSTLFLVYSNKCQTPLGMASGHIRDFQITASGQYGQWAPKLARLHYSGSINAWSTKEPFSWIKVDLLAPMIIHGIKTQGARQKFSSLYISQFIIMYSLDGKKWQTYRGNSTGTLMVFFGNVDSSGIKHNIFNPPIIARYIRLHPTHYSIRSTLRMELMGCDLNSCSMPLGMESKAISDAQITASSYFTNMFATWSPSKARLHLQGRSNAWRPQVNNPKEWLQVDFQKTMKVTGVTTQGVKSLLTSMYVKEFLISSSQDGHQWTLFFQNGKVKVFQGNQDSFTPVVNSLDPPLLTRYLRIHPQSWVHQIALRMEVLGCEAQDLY

Kd: 0.29 nM
Substance: B-domain deleted factor VIII (FVIII) (from UniProt P00451 20-759; P00451 1668-2351)
